Where “and” joins values, the source holds several entries; their conditions need not be identical. Identical values can stand only once.
Key:
human TNF-alpha [1] = target: T1, human TNF-alpha (human, UniProt P01375 77-233); assay: cell-based or functional assay
human TNF-alpha [2] = target: T1, human TNF-alpha; assay: cell-based or functional assay; remark: listed apart in the source
cynomolgus TNF-alpha = cynomolgus TNF-alpha (cynomolgus, UniProt P79337 77-233, limits assumed); assay: cell-based or functional assay
human TNF-alpha [3] = target: T1, human TNF-alpha; assay: cell-based or functional assay; remark: listed apart in the source
human TNF-alpha [4] = target: T1, human TNF-alpha; assay: cell-based or functional assay; remark: listed apart in the source
recombinant human IL23 [5] = target: T2, recombinant human IL23 (human, UniProt P29460 23-328); assay: cell-based or functional assay
T2 sequence 1: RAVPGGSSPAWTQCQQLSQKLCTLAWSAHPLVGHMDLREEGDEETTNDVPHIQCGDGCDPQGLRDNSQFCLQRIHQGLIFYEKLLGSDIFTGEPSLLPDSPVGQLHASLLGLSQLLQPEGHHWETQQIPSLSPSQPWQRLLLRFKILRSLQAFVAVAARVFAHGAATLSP
T2 sequence 2: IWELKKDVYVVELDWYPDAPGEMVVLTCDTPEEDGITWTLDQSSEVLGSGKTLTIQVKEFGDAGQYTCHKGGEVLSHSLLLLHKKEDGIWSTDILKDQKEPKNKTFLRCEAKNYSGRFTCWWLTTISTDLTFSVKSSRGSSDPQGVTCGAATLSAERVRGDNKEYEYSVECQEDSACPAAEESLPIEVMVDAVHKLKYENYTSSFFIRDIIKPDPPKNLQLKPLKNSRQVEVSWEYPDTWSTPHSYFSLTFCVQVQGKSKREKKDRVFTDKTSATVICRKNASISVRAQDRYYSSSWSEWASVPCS

recombinant human IL23 [6] = target: T2, recombinant human IL23; assay: cell-based or functional assay; remark: listed apart in the source
[7] = target: T3, recombinant cynomolgus IL23 (cynomolgus); assay: cell-based or functional assay
T3 chain 1: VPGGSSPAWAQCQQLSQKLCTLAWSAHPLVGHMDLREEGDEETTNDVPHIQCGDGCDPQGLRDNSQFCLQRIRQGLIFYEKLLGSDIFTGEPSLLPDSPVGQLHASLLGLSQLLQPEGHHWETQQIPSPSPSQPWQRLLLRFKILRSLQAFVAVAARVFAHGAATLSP
T3 chain 2: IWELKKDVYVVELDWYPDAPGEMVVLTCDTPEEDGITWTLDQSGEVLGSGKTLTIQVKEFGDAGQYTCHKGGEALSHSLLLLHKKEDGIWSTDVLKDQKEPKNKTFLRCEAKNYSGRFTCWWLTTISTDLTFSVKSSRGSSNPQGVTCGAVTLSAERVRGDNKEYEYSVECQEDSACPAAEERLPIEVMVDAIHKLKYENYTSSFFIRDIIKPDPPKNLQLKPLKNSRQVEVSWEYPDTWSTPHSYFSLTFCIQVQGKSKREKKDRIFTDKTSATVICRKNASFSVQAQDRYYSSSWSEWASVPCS

recombinant human IL23 [8] = target: T2, recombinant human IL23; assay: cell-based or functional assay; remark: listed apart in the source
recombinant human IL23 [9] = target: T2, recombinant human IL23; assay: cell-based or functional assay; remark: listed apart in the source
membrane bound TNF-alpha [10] = target: T4, membrane bound TNF-alpha; assay: flow cytometry, mTNF-transfected CHO cells (geomean)
T4 construct: whole, on cells; also called mTNF; membrane expressed TNF-alpha
Method: (§1) All reagents were prepared in flow cytometry staining buffer (BioLegend). Membrane expressed TNF-alpha transfected cell lines (Jurkat and CHO) and parental cell lines were harvested from tissue culture vessels, washed, counted and resuspended to 1×10̂6 cells/ml in flow cytometry staining buffer. One hundred microliters of the cell suspension was added to 96 well microtiter plates and placed on ice. Titrations of test compounds were prepared and 50 uL was added to the cells. After sixty minute incubation on ice, the cell+test compounds were washed and 50 uL of a secondary antibody (Jackson ImmunoResearch) was added. The samples were incubated in the dark, at 4 C, for 60 minutes, followed by washes. After a final wash the cells were resuspended in 60 uL of fixative (BD Bioscience). Median fluorescence was determined for each sample in a flow cytometer and plotted versus the concentration of the test sample. EC₅₀ values were calculated using the 4 Parameter Logistic enabled by the Excel add-in XLfit (Activity Base software, ID Business Solutions, Ltd.).

membrane bound TNF-alpha [11] = target: T4, membrane bound TNF-alpha; assay: flow cytometry, mTNF-transfected Jurkat cells (geomean)
Method: as §1

recombinant human IL23 [12] = target: T2, recombinant human IL23; assay: cell-based or functional assay; remark: listed apart in the source
recombinant human IL23 [13] = target: T2, recombinant human IL23; assay: cell-based or functional assay; remark: listed apart in the source

T1 sequence (P01375 77-233 limits assumed): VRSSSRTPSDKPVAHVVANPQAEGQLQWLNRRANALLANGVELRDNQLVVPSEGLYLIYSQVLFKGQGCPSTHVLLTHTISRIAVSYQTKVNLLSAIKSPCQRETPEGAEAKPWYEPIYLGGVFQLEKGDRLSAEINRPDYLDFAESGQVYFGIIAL
Chain of cynomolgus TNF-alpha (P79337 77-233 limits assumed): as the sequence (P01375 77-233 limits assumed) above, with L37V, R44T, T72N, R138L counted along it
T4 sequence (P01375 whole entry): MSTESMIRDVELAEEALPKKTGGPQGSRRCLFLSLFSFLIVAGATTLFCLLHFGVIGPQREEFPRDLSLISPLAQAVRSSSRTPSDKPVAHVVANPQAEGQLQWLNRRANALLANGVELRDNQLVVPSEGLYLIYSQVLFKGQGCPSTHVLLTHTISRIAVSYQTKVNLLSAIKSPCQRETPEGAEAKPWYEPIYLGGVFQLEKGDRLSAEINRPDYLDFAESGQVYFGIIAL

HeLa IL8 Hi-Hu-TNF IC50 (human TNF-alpha [2]) [nM]	HeLa IL8 Hi-Hu-TNF IC90 (human TNF-alpha [2]) [nM]	HeLa IL8 Lo-Hu-TNF IC50 (human TNF-alpha [2]) [nM]	HeLa IL8 Lo-Hu-TNF IC90 (human TNF-alpha [2]) [nM]	HeLa IL8 Cyno-TNF IC50 (cynomolgus TNF-alpha) [nM]	HeLa IL8 Cyno-TNF IC90 (cynomolgus TNF-alpha) [nM]	TNF-IL8 Whole Blood IC50 (human TNF-alpha [3]) [nM]	TNF-IL8 Whole Blood IC90 (human TNF-alpha [3]) [nM]	Dual Phospho DB-pSTAT3 IC50 (recombinant human IL23 [5]) [pM]	Dual Phospho DB-pSTAT3 IC90 (recombinant human IL23 [5]) [pM]	hIL23 pSTAT3 DB assay IC50 (recombinant human IL23 [6]) [pM]	hIL23 pSTAT3 DB assay IC90 (recombinant human IL23 [6]) [pM]	CynoIL23 MSA IC50 [7] [nM]	CynoIL23 MSA IC90 [7] [nM]	huIL23 MSA IC50 (recombinant human IL23 [8]) [nM]	huIL23 MSA IC90 (recombinant human IL23 [8]) [nM]	IL23A pSTAT3 (MG) IC50 (recombinant human IL23 [9]) [pM]	IL23A pSTAT3 (MG) IC90 (recombinant human IL23 [9]) [pM]	Binder	L929 TNF Cytotox IC50 (human TNF-alpha [1]) [nM]	L929 TNF Cytotox IC90 (human TNF-alpha [1]) [nM]	also measured
–	–	–	–	0.28	1.2	–	–	–	–	–	–	–	–	–	–	–	–	Control antibody 2 (TNFa monoclonal antibody) (antibody, V domains shown, Monoclonal antibody) VH: QVQLVESGGGVVQPGRSLRLSCAASGFIFSSYAMHWVRQAPGNGLEWVAFMSYDGSNKKYADSVKGRFTISRDNSKNTLYLQMNSLRAEDTAVYYCARDRGIAAGGNYYYYGMDVWGQGTTVTVSS VL: EIVLTQSPATLSLSPGERATLSCRASQSVYSYLAWYQQKPGQAPRLLIYDASNRATGIPARFSGSGSGTDFTLTISSLEPEDFAVYYCQQRSNWPPFTFGPGTKVDIK	–	–	EC50 (membrane bound TNF-alpha [10]): 0.31 nM; EC50 (membrane bound TNF-alpha [11]): 0.23 nM
–	–	–	–	–	–	–	–	89	230	160	310	0.017	0.24	0.053	0.35	35	140	Control Antibody 3 (IL23 monoclonal antibody) (antibody, V domains shown) VH: QVQLVQSGAEVKKPGSSVKVSCKASGYTFTDQTIHWMRQAPGQGLEWIGYIYPRDDSPKYNENFKGKVTITADKSTSTAYMELSSLRSEDTAVYYCAIPDRSGYAWFIYWGQGTLVTVSS VL: DIQMTQSPSSLSASVGDRVTITCKASRDVAIAVAWYQQKPGKVPKLLIYWASTRHTGVPSRFSGSGSRTDFTLTISSLQPEDVADYFCHQYSSYPFTFGSGTKLEIK	–	–	IC50, IL-23-dependent STAT3 activation (DB-STAT3Luc10 luciferase) (recombinant human IL23 [12]): 0.0965 nM and 0.104 nM and 0.0803 nM; GEOMEAN IC50, IL-23-dependent STAT3 activation (luciferase) (recombinant human IL23 [13]): 0.0931 nM; GEOMEAN IC90, IL-23-dependent STAT3 activation (luciferase) (recombinant human IL23 [13]): 0.191 nM

Second part, the binder before the results:

Binder	HeLa IL8 Hi-Hu-TNF IC50 (human TNF-alpha [2]) [nM]	HeLa IL8 Hi-Hu-TNF IC90 (human TNF-alpha [2]) [nM]	HeLa IL8 Lo-Hu-TNF IC50 (human TNF-alpha [2]) [nM]	HeLa IL8 Lo-Hu-TNF IC90 (human TNF-alpha [2]) [nM]	HeLa IL8 Cyno-TNF IC50 (cynomolgus TNF-alpha) [nM]	HeLa IL8 Cyno-TNF IC90 (cynomolgus TNF-alpha) [nM]	TNF-IL8 Whole Blood IC50 (human TNF-alpha [3]) [nM]	TNF-IL8 Whole Blood IC90 (human TNF-alpha [3]) [nM]	Dual Phospho DB-pSTAT3 IC50 (recombinant human IL23 [5]) [pM]	Dual Phospho DB-pSTAT3 IC90 (recombinant human IL23 [5]) [pM]	hIL23 pSTAT3 DB assay IC50 (recombinant human IL23 [6]) [pM]	hIL23 pSTAT3 DB assay IC90 (recombinant human IL23 [6]) [pM]	CynoIL23 MSA IC50 [7] [nM]	CynoIL23 MSA IC90 [7] [nM]	huIL23 MSA IC50 (recombinant human IL23 [8]) [nM]	huIL23 MSA IC90 (recombinant human IL23 [8]) [nM]	IL23A pSTAT3 (MG) IC50 (recombinant human IL23 [9]) [pM]	IL23A pSTAT3 (MG) IC90 (recombinant human IL23 [9]) [pM]	L929 TNF Cytotox IC50 (human TNF-alpha [1]) [nM]	L929 TNF Cytotox IC90 (human TNF-alpha [1]) [nM]	also measured
Compound P (bispecific antibody) chain 1: not shown chain 2: EIVLTQSPATLSLSPGERATLSCRASQSVYSYLAWYQQKPGQAPRLLIYDASNRATGIPARFSGSGSGTDFTLTISSLEPEDFAVYYCQQRSNWPPFTFGPGTKVDIKGGGSGGGGQVQLVQSGAEVKKPGSSVKVSCKASGYTFTDQTIHWMRQAPGQGLEWIGYIYPRDDSPKYNENFKGKVTITADKSTSTAYMELSSLRSEDTAVYYCAIPDRSGYAWFIYWGQGTLVTVSSVEPKSSRTVAAPSVFIFPPSDEQLKSGTASVVCLLNNFYPREAKVQWKVDNALQSGNSQESVTEQDSKDSTYSLSSTLTLSKADYEKHKVYACEVTHQGLSSPVTKSFNRGEC	0.41	0.81	0.0092	0.036	0.21	0.81	0.29	0.42	340	630	300	620	0.097	1.5	0.2	1.4	69	480	0.0034	0.014	Dual Phospho Jurkat-pNf-Kb IC50 (human TNF-alpha [4]): 290 pM; Dual Phospho Jurkat-pNf-Kb IC90 (human TNF-alpha [4]): 340 pM
Compound F (bispecific antibody) chain 1: DIQMTQSPSSLSASVGDRVTITCKASRDVAIAVAWYQQKPGKVPKLLIYWASTRHTGVPSRFSGSGSRTDFTLTISSLQPEDVADYFCHQYSSYPFTFGSGTKLEIKGGGSGGGGQVQLVESGGGVVQPGRSLRLSCAASGFIFSSYAMHWVRQAPGNGLEWVAFMSYDGSNKKYADSVKGRFTISRDNSKNTLYLQMNSLRAEDTAVYYCARDRGIAAGGNYYYYGMDVWGQGTTVTVSSFNRGESASTKGPSVFPLAPSSKSTSGGTAALGCLVKDYFPEPVTVSWNSGALTSGVHTFPAVLQSSGLYSLSSVVTVPSSSLGTQTYICNVNHKPSNTKVDKRVEPKSCDKTHTCPPCPAPEAAGGPSVFLFPPKPKDTLYITREPEVTCVVVDVSHEDPEVKFNWYVDGVEVHNAKTKPREEQYNSTYRVVSVLTVLHQDWLNGKEYKCKVSNKALPAPIEKTISKAKGQPREPQVYTLPPSREEMTKNQVSLTCLVKGFYPSDIAVEWESNGQPENNYKTTPPVLDSDGSFFLYSKLTVDKSRWQQGNVFSCSVMHEALHNHYTQKSLSLSPGK chain 2: EIVLTQSPATLSLSPGERATLSCRASQSVYSYLAWYQQKPGQAPRLLIYDASNRATGIPARFSGSGSGTDFTLTISSLEPEDFAVYYCQQRSNWPPFTFGPGTKVDIKGGGSGGGGQVQLVQSGAEVKKPGSSVKVSCKASGYTFTDQTIHWMRQAPGQGLEWIGYIYPRDDSPKYNENFKGKVTITADKSTSTAYMELSSLRSEDTAVYYCAIPDRSGYAWFIYWGQGTLVTVSSVEPKSSRTVAAPSVFIFPPSDEQLKSGTASVVCLLNNFYPREAKVQWKVDNALQSGNSQESVTEQDSKDSTYSLSSTLTLSKADYEKHKVYACEVTHQGLSSPVTKSFNRGEC	0.35	0.66	0.0079	0.039	0.19	0.74	0.31	0.45	360	980	260	600	0.069	1.5	0.17	2.3	90	650	0.0025	0.01	Dual Phospho Jurkat-pNf-Kb IC50 (human TNF-alpha [4]): 280 pM; Dual Phospho Jurkat-pNf-Kb IC90 (human TNF-alpha [4]): 760 pM
Compound G (bispecific antibody) chain 1: EIVLTQSPATLSLSPGERATLSCRASQSVYSYLAWYQQKPGQAPRLLIYDASNRATGIPARFSGSGSGTDFTLTISSLEPEDFAVYYCQQRSNWPPFTFGPGTKVDIKGGGSGGGGQVQLVQSGAEVKKPGSSVKVSCKASGYTFTDQTIHWMRQAPGQGLEWIGYIYPRDDSPKYNENFKGKVTITADKSTSTAYMELSSLRSEDTAVYYCAIPDRSGYAWFIYWGQGTLVTVSSLGGGSGASTKGPSVFPLAPSSKSTSGGTAALGCLVKDYFPEPVTVSWNSGALTSGVHTFPAVLQSSGLYSLSSVVTVPSSSLGTQTYICNVNHKPSNTKVDKRVEPKSCDKTHTCPPCPAPEAAGGPSVFLFPPKPKDTLYITREPEVTCVVVDVSHEDPEVKFNWYVDGVEVHNAKTKPREEQYNSTYRVVSVLTVLHQDWLNGKEYKCKVSNKALPAPIEKTISKAKGQPREPQVYTLPPSREEMTKNQVSLTCLVKGFYPSDIAVEWESNGQPENNYKTTPPVLDSDGSFFLYSKLTVDKSRWQQGNVFSCSVMHEALHNHYTQKSLSLSPGK chain 2: DIQMTQSPSSLSASVGDRVTITCKASRDVAIAVAWYQQKPGKVPKLLIYWASTRHTGVPSRFSGSGSRTDFTLTISSLQPEDVADYFCHQYSSYPFTFGSGTKLEIKGGGSGGGGQVQLVESGGGVVQPGRSLRLSCAASGFIFSSYAMHWVRQAPGNGLEWVAFMSYDGSNKKYADSVKGRFTISRDNSKNTLYLQMNSLRAEDTAVYYCARDRGIAAGGNYYYYGMDVWGQGTTVTVSSLGGGSGRTVAAPSVFIFPPSDEQLKSGTASVVCLLNNFYPREAKVQWKVDNALQSGNSQESVTEQDSKDSTYSLSSTLTLSKADYEKHKVYACEVTHQGLSSPVTKSFNRGEC	–	–	–	–	–	–	–	–	–	–	–	–	–	–	–	–	–	–	–	–	IC50, IL-23-dependent STAT3 activation (DB-STAT3Luc10 luciferase) (recombinant human IL23 [12]): 0.22 nM; IC90, IL-23-dependent STAT3 activation (DB-STAT3Luc10 luciferase) (recombinant human IL23 [12]): 1.15 nM; First test IC50, IL-23-dependent STAT3 activation (luciferase) (recombinant human IL23 [13]): 0.187 nM; GEOMEAN IC50, IL-23-dependent STAT3 activation (luciferase) (recombinant human IL23 [13]): 0.203 nM; GEOMEAN IC90, IL-23-dependent STAT3 activation (luciferase) (recombinant human IL23 [13]): 0.831 nM
